T1: recombinant human CXCL11/I-TAC (human, UniProt O14625 22-94, biotinylated in the ELISA; 125I label in the radioligand assays)
T1 sequence (looked up): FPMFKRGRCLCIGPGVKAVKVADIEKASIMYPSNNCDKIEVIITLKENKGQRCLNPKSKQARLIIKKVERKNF

B1: Nanobody 11G8 (VHH)
VHH: EVQLVESGGGLVQAGGSLRLSCAASGRTFSSYAMGWFRQAPGKEQEFVAAISWSGGSTYYADSVKGRFTISRDNAKNTVYLQMNSLKPEDTAVYYCAAHDVDDDESPYYSGGYYRALYDYWGQGTQVTVSS
notes: llama VHH against CXCL11; not shown: C-terminal c-myc tag and (His)6 tag coded by the vector
B2: Nanobody 11B8 (VHH)
VHH: EVQLVESGGGLVQPGGSLRLSCAASGFTLDDYVIGWFRQAPGKEREGVSGISSSDGSTYYADSVKGRFTISRDNAKNTVYLQMNSLKPEDTAVYYCAAGMGVLRLWVLSKLSYDYWGQGTQVTVSS
notes: as for B1
B3: Nanobody 11C7 (VHH)
VHH: EVQLVESGGGLVQAGGSLRLSCAAASGGTFTKQTISWFRQAPGKDREFVAAQWWSGLSTYFAEYADSVKGRFTISRDNAKNTAYLEMNSLKFEDTAVYYCAAGLGVVRTLIRRASSYDYWGQGTQVTVSS
notes: as for B1
B4: Nanobody 11F7 (VHH)
VHH: EVQLVESGGGLVQAGGSLRLSCAASGGTFTKQTMGWFRQTPGKDREFVAVQWWTGLSTYSAEYADSVKGRFTISRDNAKNTAYLQMNSLKFEDTAVYYCAAGLGVVRTFIRRASSYDDWGQGTQVTVSS
notes: as for B1
B5: Nanobody 11E5 (VHH)
VHH: EVQLVESGGGLVQAGGSLRLSCAASGFTFDDYAIGWFRQAPGKEREGVSWISSSDKDTYYADSVKGRFTISSDNAKNTVYLQMNSLKPEDTAVYYCAAGAGLLIATIWTTQMYDYWGQGTQVTVSS
notes: as for B1
B6: Nanobody 11D1 (VHH)
VHH: EVQLVESGGGLVQAGGSLRLSCAASGFTLNDYAIGWFRQAPGKEREGVSLISSDDGSTYYADSVKGRFTISSDNAKNTVYLQMNSLKPEDTAVYYCAAAQGLLLLSLWVPTQYDYWGQGTQVTVSS
notes: as for B1
B7: Nanobody 11D10 (VHH)
VHH: EVQLVESGGGLVQAGGSLRLSCAASGFTIDDYAIGWFRQAPGKEREGVSCISSSDGSTYYADSVKGRFTISSDNAKNTVYLQMNSLKPEDTAVYYCAAAQGLVVTEMFVGRSYDYWGQGTQVTVSS
notes: as for B1
B8: Nanobody 11D2 (VHH)
VHH: EVQLVESGGGLVQAGGSLRLSCAASGFSFDDYAIGWFRQAPGKEREGVSLISSSDGSTYYADSVKGRFTISSDNAKNTVYLQMNSLKPEDTAVYYCAAGQGLLRAQALRWESYDYWGQGTQVTVSS
notes: llama VHH against CXCL11; also called 11G1; 11H1; not shown: C-terminal c-myc tag and (His)6 tag coded by the vector
B9: Nanobody 11A3 (VHH)
VHH: EVQLVESGGGLVQAGGSLRLSCAASGFSFDDYVIGWFRQAPGKEREGVSLISSSDGSTYYADSVKGRFTISSDNAKNTVYLQMNSLKPEDTAVYYCAAGNGLLRLWMFHVSAYDYWGQGTQVTVSS
notes: as for B1
B10: Nanobody 11H2 (VHH)
VHH: EVQLVESGGGLVQAGGSLRLSCAASGFTFDDYAIGWFRQAPGKEREGVSCISSSDGDTYYADSVKGRFTASSDNAKNTVYLQINSLKPEDTAVYYCAAGQGLLIAQALRWESYDYWGQGTQVTVSS
notes: llama VHH against CXCL11; purified; not shown: C-terminal c-myc tag and (His)6 tag coded by the vector
B11: Nanobody 11G2 (VHH)
VHH: EVQLVESGGGLVQAGGSLRLSCAASGFTFDDYAIGWFRQAPGKEREGVSWISSSDGSTYYADSVKGRFTISSDNAKNTVYLQMNSLKPEDTAVYYCAAGAGFLITTIWTTQMYDYWGQGTQVTVSS
notes: as for B1
B12: Nanobody 11C2 (VHH)
VHH: EVQLVESGGGLVQAGGSLRLPCAASGFTFDDYVIGWFRQAPGKEREGVSLISSSDGSTYYADSVKGRFTISSDNAKNTVYLQMNGLKPEDTAVYYCAATSSIPYYSGSYYPNPFEYDYWGQGTQVTVSS
notes: as for B1
B13: Nanobody 11E2 (VHH)
VHH: EVQLVESGGGLVQAGGSLRLSCAASGFTFDDYAIGWFRQAPGKEREGVSCISSSDDSTYYADSVKGRFTISSDTAKNTVYLQMDSLKPEDTAVYYCAKDCIIPPIGSWGQGTQVTVSS
notes: as for B1
B14: Nanobody 11F2 (VHH)
VHH: EVQLVESGGGLVQPGGSLRLSCAASGFTFSSYAMSWVRQAPGKGLEWVSSIYSDGSNTYYADSVKGRFTISRDNAKNTLYLQMNSLKSEDTAVYYCAKKDYAVVPLDEYDYWGQGTQVTVSS
notes: llama VHH against CXCL11; also called 38D11; not shown: C-terminal c-myc tag and (His)6 tag coded by the vector
B15: Nanobody 11F10 (VHH)
VHH: EVQLVESGGGLVQAGGSLRLSCAASGFTLDDYAIGWFRQAPGKEREGVSCISSSDGSTYYADSVKGRFTISSDNAKNTVYLQMNSLKPEDTAVYYCAAGQGVLRLWVLSSSSYDYWGQGTQVTVSS
notes: as for B1
B16: Nanobody 11E7 (VHH)
VHH: EVQLVESGGGLVQAGGSLRLSCAASGFTFDDYAIGWFRQAPGKEREGVSIISSSDGTTYYADSVKGRFTISTDNAKNTVYLQMNSLKPEDTAVYYCAAGQGWVIATMTSFRAHREYDYWGQGTQVTVSS
notes: as for B1
B17: Nanobody 11D9 (VHH)
VHH: EVQLVESGGGLVQAGGSLRLSCAASGFTFDDYPIGWFRQAPGKEREGISCISSSDGSTYYADSVKGRFTISSDNAKNTVYLQMNSLKPEDTAVYYCAAGLGALVRYYSGSYYCDGMDYWGKGTLVTVSS
notes: as for B1
B18: Nanobody 11G10 (VHH)
VHH: EVQLVESGGGLVQPGGSLRLSCAASGFTLDDYAIGWFRQAPGKEREGVSSISSSDGRTYYADSVKGRFAISRDNAKNTVYLQMNSLKPEDTAVYYCAADQGVVAYDALRPYRWLEVWGQGTLVTVSS
notes: as for B1
B19: Nanobody 11B2 (VHH)
VHH: EVQLVESGGGLVQAGGSLRLSCAASGFTFDDYAMCWFRQAPGKEREGVSCISSSDGSTYYADSVKGRFTISSDNAKNTVYLHMNSLKPEDTAVYYCAAAQGVVAGASLVWVPLDEYDYWGQGTQVTVSS
notes: as for B10
B20: Nanobody 38E6 (VHH)
VHH: EVQLVESGGGLAQPGGSLRLSCAASGFTFSSYAMSWVRQAPGKGLEWVSAINSGGGSTSYADSVKGRFTISRDNAKNTLYLQMNSLKPEDTAVYYCQRGDYEFEPLEYDYWGQGTQVTVSS
notes: as for B1
B21: Nanobody 38G6 (VHH)
VHH: EVQLVESGGGLVQAGGSLRLSCEASGFTFDDYAIGWFRQAPGKEREGVSCCSSSDGSTYYADSVKGRFTISSDNAKNTVYLQMNSLKPEDTAVYYCAATQGLLIATMWNPASYDYWGQGTQVTVSS
notes: as for B1
B22: Nanobody 38C6 (VHH)
VHH: EVQLVESGGGLVQAGGSLRLSCAASGFTFDDYAIGWFRQAPGKEREGVSCCSSSDGSTYYADSVKGRFTISSDNAKNTVYLQMNSLKPEDTAVYYCAATQGLTIATMWNPVSYDYWGQGTQVTVSS
notes: as for B1
B23: Nanobody 8H7 (VHH)
VHH: EVQLVESGGGLVQAGDSLRLSCAASGRTFSSYRMGWFRQAPGKEREFVAAISRSGASAYYADSVKGRFTSSRDNAKNTVYLQMNKLKPEDTAVYYCAASSRIGVDDPEAYGYWSQGTQVTVSS
notes: llama VHH against CCL2; not shown: C-terminal c-myc tag and (His)6 tag coded by the vector
B24: Nanobody 15A8 (VHH)
VHH: EVQLVESGGGLVQAGGSLRLSCAASGFTFDDYAIGWFRQAPGKEREGPLCISSSDGSTYYADSVKGRFTISSDNAKNTVYLQMNSLKPEDTAVYYCAAESLGDYGLASPLPADFGSWGQGTQVTVSS
notes: as for B23
B25: Nanobody 8A8 (VHH)
VHH: EVQLVESGGGLVQAGGSLRLSCAASGRTFSSYRMGWFRQAPEKEREFVAVITRSGSDQFYSNSVKGRFTISRDNAKNTVYLQMNSLKPEDTAVYYCAAGAQIGWAEASTYDYWGQGTQVTVSS
notes: llama VHH against CCL2; also called 8D8; 15C7; not shown: C-terminal c-myc tag and (His)6 tag coded by the vector
B26: Nanobody 8H8 (VHH)
VHH: EMQLVESGGGLVQAGGSLRLSCAASGRTFSSYRMGWFRQAPEKEREFVALINRSGGSQFYSNSVKGRFTISRDNAKNTVYLQMNSLKPEDTAVYYCAAGAQMGWAEASTYDYWGQGTQVTVSS
notes: as for B23
B27: Nanobody 15C8 (VHH)
VHH: EVQLVESGGGLVQAGGSLRLSCAASGRTFSSYRMGWFRQAPEKEREFVAVITRSGGSTFYSNSVKGRFTISRDNAKNTVYLQMNSLKPEDTAVYYCAAGAQMGWAEASTYDYWGQGTQVTVSS
notes: as for B23

The binders below were run against T1, recombinant human CXCL11/I-TAC (assay: inhibition of 125I-CXCL11 binding to hCXCR3 (HEK293T cells), 10x diluted periplasm).
B1: binds. B2: binds. B3: binds. B4: binds. B5: binds. B6: binds. B7: binds.

What follows are binders tested against T1, recombinant human CXCL11/I-TAC (assay: inhibition of 125I-CXCL11 binding to hCXCR3 (HEK293T cells), 10x diluted periplasm; ELISA grade at the label).
B8: binds. B9: binds. B10: binds. B11: binds. B12: binds. B13: binds. B14: binds.

Target: T1, recombinant human CXCL11/I-TAC
Experiment: as above
Remark: another data set of the same source
B15: binds. B16: binds. B17: binds. B18: binds.

Each binder was assayed against T1, recombinant human CXCL11/I-TAC (assay: inhibition of 125I-CXCL11 (46 pM) binding to hCXCR3 on HEK293T cells; radioligand preincubated with purified Nanobody).
B19 showed a pIC50 of 9.1.

Each binder was assayed against T1, recombinant human CXCL11/I-TAC (assay: ELISA, Nanobody captured by coated anti-myc antibody, biotinylated CXCL11, streptavidin-HRP).
B20: binds. B21: binds. B22: binds.

The binders below were run against T2, recombinant human CCL2/MCP1 (human, UniProt P13500 24-99, 125I label in the radioligand assays) (assay: inhibition of 125I-CCL2 binding to HCMV-US28 (HEK293T cells), 10x diluted periplasm; ELISA grade at the label).
T2 construct: Immunogen and selection antigen was the Mucin stalk Chimera (R&D 979-MC/CF)
T2 sequence (P13500 24-99 limits assumed): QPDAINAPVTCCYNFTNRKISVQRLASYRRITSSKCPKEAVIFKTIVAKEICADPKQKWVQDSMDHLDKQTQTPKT
B23: binds. B24: binds. B25: binds. B26: binds. B27: binds.

What follows are binders tested against T1, recombinant human CXCL11/I-TAC (assay: cell-based or functional assay).
For B19, the “inhibition of CXCL11-induced PLC activation (3H-inositol phosphate accumulation, HEK293T cells with CXCR3 and G-alpha-qi5), pIC50” value was 7.6.

From patent US20100092460A1 (Ablynx, published 2010)
